Columns and labels:
[1] = target: DmC1GalT1^T43-Q388 (Drosophila melanogaster C1GalT1, residues T43-Q388) (Drosophila melanogaster); assay: ITC; under an excess of UDP: 2 mM (glyco)peptide titrated into DmC1GalT1^T43-Q388 (60 µM for APDT*RP and APDTRP, 50 µM for P4/P7); 20 °C; 25 mM TRIS pH 7.5, 150 mM NaCl, 1 mM UDP, 1 mM MnCl2; one-site model; duplicate
[2] = target: Drosophila melanogaster C1GalT1, residues T43-Q388 (DmC1GalT1^T43-Q388) (Drosophila melanogaster) (UniProt Q7K237); assay: ITC; 2 mM glycopeptide titrated into the enzyme (60 uM for APDT*RP, 50 uM for P4/P7); excess of UDP: 25 mM TRIS pH 7.5, 150 mM NaCl, 1 mM UDP, 1 mM MnCl2; 20 °C; one-site model; duplicate
[3] = target: DmC1GalT1^T43-Q388 (Drosophila melanogaster C1GalT1, residues T43-Q388) (Drosophila melanogaster) (UniProt Q7K237); assay: ITC; with an excess of UDP: 2 mM (glyco)peptide titrated into 60 μM (APDT*RP, APDTRP) or 50 μM (P4/P7) enzyme; 25 mM TRIS pH 7.5, 150 mM NaCl, 1 mM UDP, 1 mM MnCl2; 20 °C; one-site model; low Wiseman c (c < 1)
[4] = target: DmC1GalT1^T43-Q388 (Drosophila melanogaster C1GalT1, residues T43-Q388) (Drosophila melanogaster) (UniProt Q7K237)
[5] = system: CC(=O)N[C@H]1[C@@H](O[C@H](C)[C@H](NC(=O)[C@H](CC(=O)O)NC(=O)[C@@H]2CCCN2C(=O)[C@H](C)N)C(=O)N[C@@H](CCCNC(=N)N)C(=O)N2CCC[C@H]2C(N)=O)O[C@H](CO)[C@H](O)[C@@H]1O; assay: purified protein, by the assay type; settings: 500 µM UDP-Gal, 37.0 °C
[6] = system: CC(=O)N[C@H]1[C@@H](O[C@H](C)[C@H](NC(=O)[C@H](CC(=O)O)NC(=O)[C@H](C)NC(=O)[C@@H](N)Cc2ccc(O)cc2)C(=O)NCC(=O)N2CCC[C@H]2C(=O)N[C@@H](Cc2ccccc2)C(N)=O)O[C@H](CO)[C@H](O)[C@@H]1O; assay: purified protein, by the assay type; settings: other: acceptor substrate varied (P1–P7 12.5–500 µM; APDT*RP/APDS*RP 12.5–1000 µM; α-O-methyl-GalNAc up to 2 mM), 500 µM UDP-Gal, 500 nM enzyme, 25 mM Tris pH 7.5, 150 mM NaCl, 50 µM MnCl2, 1 mg/ml BS, 37.0 °C
[7] = system: CC(=O)N[C@H]1[C@@H](O[C@H](C)[C@H](NC(=O)[C@H](C)NC(=O)[C@H](C)NC(=O)[C@@H]2CCCN2)C(=O)NCC(=O)N2CCC[C@H]2C(=O)N[C@@H](Cc2ccc(O)cc2)C(N)=O)O[C@H](CO)[C@H](O)[C@@H]1O; assay: purified protein, by the assay type; settings: other: acceptor substrate varied (P1–P7 12.5–500 µM; APDT*RP/APDS*RP 12.5–1000 µM; α-O-methyl-GalNAc up to 2 mM), 500 µM UDP-Gal, 500 nM enzyme, 25 mM Tris pH 7.5, 150 mM NaCl, 50 µM MnCl2, 1 mg/ml BS, 37.0 °C
[8] = other: acceptor substrate varied (P1–P7 12.5–500 µM; APDT*RP/APDS*RP 12.5–1000 µM; α-O-methyl-GalNAc up to 2 mM), 500 nM enzyme, 25 mM Tris pH 7.5, 150 mM NaCl, 50 µM MnCl2, 1 mg/ml BS

APDT*RP glycopeptide (* = GalNAc on the Thr)
Kd [1]: 174 µM
stoichiometry N [1]: 0.88

APDT*RP glycopeptide (GalNAc on Thr)
Kd [2]: 173 µM

APDT*RP glycopeptide (MUC1 tandem repeat epitope with alpha-GalNAc on Thr)
fold by which UDP binds the enzyme more strongly than this peptide [3]: 9.5 fold
stoichiometry N [3]: 1
Km^app of the glycopeptide as acceptor substrate (UDP-Glo glycosylation kinetics, 500 nM enzyme, 500 μM UDP-Gal) [4]: 195 µM

DmC1GalT1^S73-Q388 (Drosophila melanogaster)
Km ([5]; other: construct S73-Q388 (Hi5 cells), APDT*RP varied 12.5 µM–1 mM, fit ± standard error, n = 2, pH 7.5): 322.6 µM

DmC1GalT1^T43-Q388 (Drosophila melanogaster)
Km [6]: 139.6 µM
Km [7]: 50.06 µM
Km [5, 8]: 195 µM
kcat [5, 8]: 0.0583 s⁻¹

Source: paper PMC9065035, “Structural basis for the synthesis of the core 1 structure by C1GalT1” (Nature Communications, 2022)
